Results reported in publication PMC6220978, “Induced conformational changes activate the peptidoglycan synthase PBP1B” (Molecular Microbiology, 2018).

How the values were obtained:
Assay in all cases: SPR; PBP1B versions immobilised to the chip surface; CpoB versions injected from either 3.9 nM to 2 μM or from 78 nM to 40 μM; apparent KD by non-linear regression, at least three independent experiments
Settings in all cases: both partners purified
[1] = molecular target: T1, PBP1B (wild type, PBP1B^46-844) (E. coli, UniProt P02919 46-844)
T1 construct: PBP1B, E. coli, residues 46-844, encoded on pDML924; Immobilised on the SPR chip as in Egan et al. 2014 / Gray et al. 2015; also called WT PBP1B; WT; source: E. coli BL21(DE3), purified (membrane extract, HisTrap, thrombin, HiTrap SP ion exchange)
T1 sequence (looked up): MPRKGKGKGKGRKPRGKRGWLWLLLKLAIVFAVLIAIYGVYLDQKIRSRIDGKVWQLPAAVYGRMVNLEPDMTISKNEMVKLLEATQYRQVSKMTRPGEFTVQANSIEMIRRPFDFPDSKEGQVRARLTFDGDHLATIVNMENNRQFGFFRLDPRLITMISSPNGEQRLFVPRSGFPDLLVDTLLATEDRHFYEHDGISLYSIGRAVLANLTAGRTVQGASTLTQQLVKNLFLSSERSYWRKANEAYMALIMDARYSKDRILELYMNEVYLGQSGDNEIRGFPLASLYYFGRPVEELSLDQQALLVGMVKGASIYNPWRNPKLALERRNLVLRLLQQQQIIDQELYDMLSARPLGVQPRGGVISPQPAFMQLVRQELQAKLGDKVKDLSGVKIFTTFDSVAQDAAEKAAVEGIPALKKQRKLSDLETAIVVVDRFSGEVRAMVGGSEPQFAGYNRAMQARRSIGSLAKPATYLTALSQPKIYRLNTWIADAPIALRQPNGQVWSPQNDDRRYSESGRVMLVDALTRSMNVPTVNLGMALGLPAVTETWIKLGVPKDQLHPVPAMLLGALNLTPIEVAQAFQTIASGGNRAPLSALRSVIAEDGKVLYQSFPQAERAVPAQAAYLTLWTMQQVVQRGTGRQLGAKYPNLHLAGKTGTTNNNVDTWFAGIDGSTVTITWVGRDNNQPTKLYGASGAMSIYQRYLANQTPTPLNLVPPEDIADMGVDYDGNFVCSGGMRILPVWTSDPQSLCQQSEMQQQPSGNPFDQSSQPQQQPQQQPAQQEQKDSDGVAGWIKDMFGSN

[2] = molecular target: T2, PBP1B R109G (E. coli, UniProt P02919 46-844, R109G)
T2 construct: PBP1B, E. coli, residues 46-844, made by mutagenesis of pDML924; source: E. coli BL21(DE3), purified (membrane extract, HisTrap, thrombin, HiTrap SP ion exchange)
T2 sequence (looked up): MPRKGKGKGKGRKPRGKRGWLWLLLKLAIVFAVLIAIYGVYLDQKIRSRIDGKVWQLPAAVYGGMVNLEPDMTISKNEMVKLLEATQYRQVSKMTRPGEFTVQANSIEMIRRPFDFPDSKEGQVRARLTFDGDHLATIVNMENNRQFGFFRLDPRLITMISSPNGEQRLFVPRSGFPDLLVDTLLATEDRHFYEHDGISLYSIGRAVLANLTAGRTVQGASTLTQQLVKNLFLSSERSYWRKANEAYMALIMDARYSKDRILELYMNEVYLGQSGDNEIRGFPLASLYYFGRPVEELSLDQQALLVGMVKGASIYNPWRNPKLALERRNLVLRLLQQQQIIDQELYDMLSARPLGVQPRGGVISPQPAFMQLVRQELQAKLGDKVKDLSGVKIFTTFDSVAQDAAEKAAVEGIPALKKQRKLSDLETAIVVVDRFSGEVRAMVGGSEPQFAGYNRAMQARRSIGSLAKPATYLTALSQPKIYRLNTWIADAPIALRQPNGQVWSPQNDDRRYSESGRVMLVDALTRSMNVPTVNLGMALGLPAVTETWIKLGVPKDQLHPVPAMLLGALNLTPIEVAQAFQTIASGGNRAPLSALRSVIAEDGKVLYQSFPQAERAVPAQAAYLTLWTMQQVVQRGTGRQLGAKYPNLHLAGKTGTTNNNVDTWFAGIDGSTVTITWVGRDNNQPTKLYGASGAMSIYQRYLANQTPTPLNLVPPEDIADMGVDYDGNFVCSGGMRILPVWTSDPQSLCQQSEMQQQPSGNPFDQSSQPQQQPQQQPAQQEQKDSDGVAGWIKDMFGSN

[3] = molecular target: T3, PBP1B N112G (E. coli, UniProt P02919 46-844, N112G)
T3 construct: PBP1B, E. coli, residues 46-844, made by mutagenesis of pDML924; source: E. coli BL21(DE3), purified (membrane extract, HisTrap, thrombin, HiTrap SP ion exchange)
T3 sequence (looked up): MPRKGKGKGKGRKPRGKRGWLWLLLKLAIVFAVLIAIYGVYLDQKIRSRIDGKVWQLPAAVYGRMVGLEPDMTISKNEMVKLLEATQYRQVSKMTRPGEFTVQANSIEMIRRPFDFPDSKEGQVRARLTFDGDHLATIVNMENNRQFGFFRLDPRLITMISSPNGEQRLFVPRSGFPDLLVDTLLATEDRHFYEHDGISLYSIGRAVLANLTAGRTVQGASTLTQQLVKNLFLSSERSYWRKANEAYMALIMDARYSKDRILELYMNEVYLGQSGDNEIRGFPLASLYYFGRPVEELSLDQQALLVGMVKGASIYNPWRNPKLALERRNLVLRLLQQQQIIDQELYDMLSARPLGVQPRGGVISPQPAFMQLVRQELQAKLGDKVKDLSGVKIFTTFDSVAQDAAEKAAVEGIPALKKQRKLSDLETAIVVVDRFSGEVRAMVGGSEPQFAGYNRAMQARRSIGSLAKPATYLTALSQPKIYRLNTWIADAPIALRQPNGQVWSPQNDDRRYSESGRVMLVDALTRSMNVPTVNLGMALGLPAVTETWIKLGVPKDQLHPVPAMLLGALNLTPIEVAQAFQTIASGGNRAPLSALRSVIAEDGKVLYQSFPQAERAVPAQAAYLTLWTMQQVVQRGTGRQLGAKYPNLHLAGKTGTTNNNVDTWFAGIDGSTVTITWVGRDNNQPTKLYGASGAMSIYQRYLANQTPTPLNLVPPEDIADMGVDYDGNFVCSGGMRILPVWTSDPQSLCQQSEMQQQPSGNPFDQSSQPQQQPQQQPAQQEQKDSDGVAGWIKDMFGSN

B1: CpoB (full length) (natural protein, E. coli, UniProt P45955 27-263, looked up)
chain: QAPISSVGSGSVEDRVTQLERISNAHSQLLTQLQQQLSDNQSDIDSLRGQIQENQYQLNQVVERQKQILLQIDSLSSGGAAAQSTSGDQSGAAASTTPTADAGTANAGAPVKSGNANTDYNAAIALVQDKSRQDDAMVAFQNFIKNYPDSTYLPNANYWLGQLNYNKGKKDDAAYYFASVVKNYPKSPKAADAMFKVGVIMQDKGDTAKAKAVYQQVISKYPGTDGAKQAQKRLNAM
notes: CpoB, E. coli; The coiled-coil construct begins at residue 27, so the purified 'full length' protein may lack the signal peptide (surmise); source: E. coli BL21(DE3), purified (HisTrap, Superdex 200), as in Gray et al. 2015
Kd [1]: 94 nM | Kd [2]: 70 nM | Kd [3]: 89 nM
